# Target: SARS-CoV-2 RBD (40592-VO8H, Sino Biological), Alexa Fluor 647 labelled (SARS-CoV-2) (UniProt P0DTC2)
substance,measurement,value
"SARS-CoV-2 (2019-nCoV) spike antibody (40150-R007, Sino Biological)",Kd,9.6 nM

# From patent US20230360747A1
